Measured values published in patent publication US20090018083A1 (ALBERT EINSTEIN SCHOOL OF MEDICINE OF YESHIVA UNIVERSITY, published 2009).
No end group written: not given here.

Legend:
[1] = target: T1, BCL6-3C BTB domain (human BCL6 residues 5-129 with C8Q/C67R/C84N) (human, UniProt P41182 5-129); assay: native-gel mobility shift assay
Experimental: (§1) The mixture was analyzed by non-denaturing polyacrylamide gel electrophoresis (PAGE) and protein bands were visualized with either Coomassie blue staining or silver staining.

[2] = target: T1, BCL6-3C BTB domain (human BCL6 residues …); assay: non-denaturing PAGE mobility shift, constant BTB domain, increasing peptide
Experimental: as §1

BCL6-3C BTB domain H116A = BCL6-3C BTB domain H116A (human, UniProt P41182 5-129); assay: co-purification
Experimental: (§2) In vitro binding assays. Co-purification: Equimolar amounts of His-tagged thioredoxin-corepressor fusion protein and BCL6 BTB or PLZF BTB domain were combined, incubated for at least two hours, and loaded onto a Ni-NTA spin column (Qiagen). The column was washed three times with 600 μl of wash buffer (200 mM NaCl, 20 mM Tris-HCl pH 8.0, 10 mM imidazole), and bound protein was released with 400 μl of elution buffer (200 mM NaCl, 20 mM Tris-HCl pH 8.0, 300 mM imidazole). Samples were analyzed on 10-20% SDS-PAGE gels and stained with Coomassie blue.

BCL6-3C BTB domain N21K = BCL6-3C BTB domain N21K (human, UniProt P41182 5-129); assay: co-purification
Experimental: as §2

PLZF BTB domain [3] = target: T2, PLZF BTB domain (UniProt Q05516 6-126, limits assumed); assay: ITC
T2 construct: domain: BTB domain; Purified protein; also called BTB^PLZF
T2 sequence (looked up): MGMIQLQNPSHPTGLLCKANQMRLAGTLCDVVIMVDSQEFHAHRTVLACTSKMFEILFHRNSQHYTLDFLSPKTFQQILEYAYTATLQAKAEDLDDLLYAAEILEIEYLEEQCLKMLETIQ
Experimental: All components were in 150 mM NaCl, 20 mM Hepes pH 7.7, 1 mM TCEP. […] To correct for dilution and mixing effects, a series of control injections was carried out, in which the heat of dilution was measured in blank titrations by injecting the peptide into the buffer.

[4] = target: T1, BCL6-3C BTB domain (human BCL6 residues …); assay: co-purification
Experimental: as §2

[5] = target: T1, BCL6-3C BTB domain (human BCL6 residues …); assay: Ni-NTA co-purification with the His-tagged thioredoxin fusion, SDS-PAGE, stained gel
PLZF BTB domain [6] = target: T2, PLZF BTB domain; assay: SPR
Experimental: (§3) SPR: Biotinylated corepressor peptides were coupled to streptavidin-coated sensor chips to a density of 800 response units (Biacore 2000). BCL6 or PLZF BTB protein was serially diluted in running buffer (10 mM Hepes, pH 7.4, 150 mM NaCl, 3 mM EDTA, 0.005% v/v surfactant P20) and injected at a flow rate of 5 μL/min.

[7] = target: T1, BCL6-3C BTB domain (human BCL6 residues …); assay: SPR, biotinylated peptide on streptavidin chip, BCL6-3C BTB domain injected
Experimental: “N.b.” indicates no detectable binding.
as §3

RSEIISTAPWSSVVPGP [BCoR peptide with the S507W/W509S double mutation]
binding result [1]: no binding

B1: BCoR 498-514 peptide (BCoR BBD) (peptide)
peptide: RSEIISTAPSSWVVPGP
notes: Purified peptide used for co-crystallisation; also called BCoR-BBD peptide; BCoR peptide
binding result [2]: binds

B2: hexahistidine tagged fusion protein containing BCoR residues 317 to 547 (other, UniProt Q6W2J9 317-547, looked up)
chain: SAKAVTSGLPGDTALLLPPSPRPSPRVHLPTQPAADTYSEFHKHYARISTSPSVALSKPYMTVSSEFPAARLSNGKYPKAPEGGEGAQPVPGHARKTAVQDRKDGSSPPLLEKQTVTKDVTDKPLDLSSKVVDVDASKADHMKKMAPTVLVHSRAGSGLVLSGSEIPKETLSPPGNGCAIYRSEIISTAPSSWVVPGPSPNEENNGKSMSLKNKALDWAIPQQRSSSCPRM
notes: not shown: hexahistidine tagged fusion partner
binding result (BCL6-3C BTB domain H116A): no binding
binding result (BCL6-3C BTB domain N21K): no binding

B3: SMRT^1414-1430 peptide (SMRT-BBD), no additional N-terminal residues (peptide)
peptide: LVATVKEAGRSIHEIPR
notes: Made by thrombin digestion of the fusion protein
binding result (PLZF BTB domain [3]): no binding

RSEIISTAPASAVAPGP [BCoR peptide with the S507A/W509A/V511A triple mutation]
binding result [1]: no binding

B4: hexahistidine tagged fusion protein containing BCoR residues 112 to 342 (other, UniProt Q6W2J9 112-342, looked up)
chain: LGFSSERNPEMQFKPNTPETVEASAVSGKPPNGFSAIYKTPPGIQKSAVATAEALGLDRPASDKQSPLNINGASYLRLPWVNPYMEGATPAIYPFLDSPNKYSLNMYKALLPQQSYSLAQPLYSPVCTNGERFLYLPPPHYVGPHIPSSLASPMRLSTPSASPAIPPLVHCADKSLPWKMGVSPGNPVDSHAYPHIQNSKQPRVPSAKAVTSGLPGDTALLLPPSPRPSPR
notes: as for B2
binding result [4]: no binding

B5: SMRT-BBD with residues 1427-1430 replaced by alanines (EIPR->AAAA) (peptide)
peptide: LVATVKEAGRSIHAAAA
notes: also called AAAA mutant; not shown: N-terminal fusion or tag residues depend on the assay (His-Trx fusion in co-purification, biotinylated tag remnant in SP)
binding result [5]: no binding

B6: SMRT-BBD with the SI to IS substitution at residues 1424-1425 (peptide)
peptide: LVATVKEAGRISHEIPR
notes: The text calls it SMRT-BBD; also called IS mutant; not shown: N-terminal fusion or tag residues depend on the assay (His-Trx fusion in co-purification, biotinylated tag remnant in SP)
binding result [5]: no binding

B7: SMRT^1414-1430 peptide, biotinylated, immobilised for SPR (peptide)
peptide: LVATVKEAGRSIHEIPR
modifications: also: biotinylated lysine 8 residues N-terminal to the peptide, not in the given chain
notes: SPR form of the minimal fragment; not shown: N-terminal residues left after TEV cleavage (BirA biotinylation motif, thrombin site)
binding result (PLZF BTB domain [6]): no binding

B8: SMRT^1414-1441 peptide (fragment d), biotinylated, immobilised for SPR (peptide, UniProt Q9Y618 1414-1441, looked up)
peptide: LVATVKEAGRSIHEIPREELRHTPELPL
modifications: also: biotinylated lysine in N-terminal tag residues (not given here)
notes: not shown: N-terminal residues left after TEV cleavage (BirA biotinylation motif, thrombin site)
binding result (PLZF BTB domain [6]): no binding
Kd [7]: 15.8 nM

B9: hexahistidine tagged fusion protein containing BCoR residues 542 to 753 (other, UniProt Q6W2J9 542-753, looked up)
chain: SSCPRMGGTDAVITNVSGSVSSAGRPASASPAPNANADGTKTSRSSVETTPSVIQHVGQPPATPAKHSSSTSSKGAKASNPEPSFKANENGLPPSSIFLSPNEAFRSPPIPYPRSYLPYPAPEGIAVSPLSLHGKGPVYPHPVLLPNGSLFPGHLAPKPGLPYGLPTGRPEFVTYQDALGLGMVHPMLIPHTPIEITKEEKPERRSRSHERA
notes: as for B2
binding result [4]: no binding

B10: SMRT^1417-1441 peptide, biotinylated, immobilised for SPR (peptide, UniProt Q9Y618 1417-1441, looked up)
peptide: TVKEAGRSIHEIPREELRHTPELPL
modifications: also: biotinylated lysine in N-terminal tag residues (not given here)
notes: as for B8
binding result (PLZF BTB domain [6]): no binding
